{"source": "patent US20250145710A1", "about": "(INTEGRAL MOLECULAR, published 2025)", "key": {"human CLDN6 [1]": {"target": "T1, human CLDN6 (human, UniProt P56747 1-220)", "T1 construct": "whole, on cells; Expressed on a CLDN-negative parental cell line, HEK293F cells or K562 cells by transfection; Endogenous on OV-90 and OVCAR3 cells; also called claudin 6; Claudin 6", "T1 sequence (looked up)": "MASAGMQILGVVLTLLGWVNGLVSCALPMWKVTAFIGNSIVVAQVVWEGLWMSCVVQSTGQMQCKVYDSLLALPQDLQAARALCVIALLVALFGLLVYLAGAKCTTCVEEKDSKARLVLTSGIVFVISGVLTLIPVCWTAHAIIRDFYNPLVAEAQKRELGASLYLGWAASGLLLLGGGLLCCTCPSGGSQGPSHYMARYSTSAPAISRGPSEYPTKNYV", "test": "flow cytometry on a CLDN negative parental cell line transfected with CLDN6, CLDN4, CLDN3 or CLDN9 (FIG. 12A)"}, "human CLDN6 [2]": {"target": "T1, human CLDN6", "test": "cell-based or functional assay"}, "human CLDN9": {"target": "T2, human CLDN9 (human, UniProt O95484 1-217)", "T2 construct": "whole, on cells; also called claudin 9", "T2 sequence (looked up)": "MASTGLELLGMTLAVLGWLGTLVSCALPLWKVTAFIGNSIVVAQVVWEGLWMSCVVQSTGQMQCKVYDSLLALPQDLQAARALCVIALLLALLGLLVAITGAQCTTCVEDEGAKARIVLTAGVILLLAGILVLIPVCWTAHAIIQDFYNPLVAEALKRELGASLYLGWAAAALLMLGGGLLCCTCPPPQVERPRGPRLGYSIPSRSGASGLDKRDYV", "test": "binding to cells expressing CLDN9 (FIG. 33B, FIG. 34 text)"}, "human CLDN3": {"target": "T3, human CLDN3 (human, UniProt O15551 1-220)", "T3 construct": "whole, on cells; also called claudin 3", "T3 sequence (looked up)": "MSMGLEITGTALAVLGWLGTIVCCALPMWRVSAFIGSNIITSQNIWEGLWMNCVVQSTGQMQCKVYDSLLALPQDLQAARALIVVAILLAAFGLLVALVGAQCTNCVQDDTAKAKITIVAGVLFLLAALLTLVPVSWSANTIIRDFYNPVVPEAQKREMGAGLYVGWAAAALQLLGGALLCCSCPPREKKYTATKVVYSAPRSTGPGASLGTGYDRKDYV", "test": "binding to cells expressing CLDN3 (FIG. 34 text)"}, "human CLDN4": {"target": "T4, human CLDN4 (human, UniProt O14493 1-209)", "T4 construct": "whole, on cells; also called claudin 4", "T4 sequence (looked up)": "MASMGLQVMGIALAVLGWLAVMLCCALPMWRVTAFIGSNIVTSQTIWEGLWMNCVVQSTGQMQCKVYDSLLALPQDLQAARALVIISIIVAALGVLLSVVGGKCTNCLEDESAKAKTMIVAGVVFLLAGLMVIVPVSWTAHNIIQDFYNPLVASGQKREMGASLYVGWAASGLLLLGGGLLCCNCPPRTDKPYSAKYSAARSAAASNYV", "test": "binding to cells expressing CLDN4 (FIG. 34 text)"}, "human CLDN6 [3]": {"target": "T1, human CLDN6", "test": "flow cytometry on a CLDN negative parental cell line transfected with CLDN6, CLDN4, CLDN3 or CLDN9 (FIG. 12D)"}, "human CLDN6 [4]": {"target": "T1, human CLDN6", "test": "flow cytometry on a CLDN negative parental cell line transfected with CLDN6, CLDN4, CLDN3 or CLDN9 (FIG. 12C)"}}}
{"binder": "IMC-2-7 tandem scFv antibody (bispecific antibody, A single-chain tandem scFv (anti-CLDN6 scFv, then anti-CD3 scFv)) scFv: SYELTQPPSVSVSPGQTARITCSAGSGLYGWYQQKPGQAPVLVIYGTNKRPSGIPERFSGSSSGTTVTLTISGVQAEDEADYYCGSADSSTNAGIFGGGTKLTVLGGGGSGGGGSGGGGSEVQLLESGGGLVQPGGSLRLSCAASGFTFSSYAMNWVRQAPGKGLEWVAGISSSGRYTGYADSVKGRFTISRDNSKNTLYLQMNSLRAEDTAVYYCAKSVGSGVSWSGYVATSLDAWGQGTLVTVSSGGGGSEVQLVESGGGLVQPGGSLRLSCAASGFTFSTYAMNWVRQAPGKGLEWVGRIRSKYNNYATYYADSVKGRFTISRDDSKNTLYLQMNSLRAEDTAVYYCVRHGNFGDSYVSWFAYWGQGTLVTVSSGKPGSGKPGSGKPGSGKPGSQAVVTQEPSLTVSPGGTVTLTCGSSTGAVTTSNYANWVQQKPGKSPRGLIGGTNKRAPGVPARFSGSLLGGKAALTISGAQPEDEADYYCALWYSNHWVFGGGTKLTVL", "values": [{"measurement": "binding result", "setting": "human CLDN6 [1]", "result": "binds"}]}
{"binder": "IMC-16-3 scFv-Fab IgG antibody (bispecific antibody, also called IMC-16-3 scFv-Fab IgG bispecific antibody) heavy: EVQLLESGGGLVQPGGSLRLSCAASGFTFSSYAMNWVRQAPGKGLEWVAGISSSGRYTGYADSVKGRFTISRDNSKNTLYLQMNSLRAEDTAVYYCAKSVGSGVSWSGYVATSLDAWGQGTLVTVSSASTKGPSVFPLAPSSKSTSGGTAALGCLVKDYFPEPVTVSWNSGALTSGVHTFPAVLQSSGLYSLSSVVTVPSSSLGTQTYICNVNHKPSNTKVDKKVEPKSCDKTHTCPPCPAPEAAGGPSVFLFPPKPKDTLMISRTPEVTCVVVDVSHEDPEVKFNWYVDGVEVHNAKTKPREEQYNSTYRVVSVLTVLHQDWLNGKEYKCKVSNKALPAPIEKTISKAKGQPREPQVYTLPPSREEMTKNQVSLWCLVKGFYPSDIAVEWESNGQPENNYKTTPPVLDSDGSFFLYSKLTVDKSRWQQGNVFSCSVMHEALHNHYTQKSLSLSPGK light: SYELTQPPSVSVSPGQTARITCSAGSGLYGWYQQKPGQAPVLVIYGTNKRPSGIPERFSGSSSGTTVTLTISGVQAEDEADYYCGSADSSTNAGIFGGGTKLTVLGQPKAAPSVTLFPPSSEELQANKATLVCLISDFYPGAVTVAWKADSSPVKAGVETTTPSKQSNNKYAASSYLSLTPEQWKSHRSYSCQVTHEGSTVEKTVAPTECS scFv: EVQLVESGGGLVQPGGSLRLSCAASGFTFSTYAMNWVRQAPGKGLEWVGRIRSKYNNYATYYADSVKGRFTISRDDSKNTLYLQMNSLRAEDTAVYYCVRHGNFGDSYVSWFAYWGQGTLVTVSSGKPGSGKPGSGKPGSGKPGSQAVVTQEPSLTVSPGGTVTLTCGSSTGAVTTSNYANWVQQKPGKSPRGLIGGTNKRAPGVPARFSGSLLGGKAALTISGAQPEDEADYYCALWYSNHWVFGGGTKLTVLASPKSSDKTHTCPPCPAPEAAGGPSVFLFPPKPKDTLMISRTPEVTCVVVDVSHEDPEVKFNWYVDGVEVHNAKTKPREEQYNSTYRVVSVLTVLHQDWLNGKEYKCKVSNKALPAPIEKTISKAKGQPREPQVYTLPPSREEMTKNQVSLSCAVKGFYPSDIAVEWESNGQPENNYKTTPPVLDSDGSFFLVSKLTVDKSRWQQGNVFSCSVMHEALHNHYTQKSLSLSPGK", "values": [{"measurement": "cytokine activation assay (IL-6, IL-2, TNF-alpha, IL-8) in human PBMC co-cultured with K562 cells", "setting": "human CLDN6 [2]", "result": "~10 fold more potent than RefMAB #3"}, {"measurement": "cytotoxicity assay in OV-90 ovarian cancer cells with human PBMC, two Effector:Target ratios", "setting": "human CLDN6 [2]", "result": "~10 fold more potent than RefMAB #3"}, {"measurement": "binding result", "setting": "human CLDN9", "result": "no binding"}, {"measurement": "binding result", "setting": "human CLDN3", "result": "no binding"}, {"measurement": "binding result", "setting": "human CLDN4", "result": "no binding"}]}
{"binder": "IMC-21-1 IgG-(scFv)2 antibody (bispecific antibody, also called MC-21-1 antibody) heavy: not shown light: SYELTQPPSVSVSPGQTARITCSAGSGLYGWYQQKPGQAPVLVIYGTNKRPSGIPERFSGSSSGTTVTLTISGVQAEDEADYYCGSADSSTNAGIFGGGTKLTVLGQPKAAPSVTLFPPSSEELQANKATLVCLISDFYPGAVTVAWKADSSPVKAGVETTTPSKQSNNKYAASSYLSLTPEQWKSHRSYSCQVTHEGSTVEKTVAPTECS", "values": [{"measurement": "binding result", "setting": "human CLDN6 [3]", "result": "binds"}]}
{"binder": "IMC-16-15 scFv-Fab IgG antibody (bispecific antibody) heavy: EVQLLESGGGLVQPGGSLRLSCAASGFTFSSYAMNWVRQAPGKGLEWVAGISSSGRYTGYADSVKGRFTISRDNSKNTLYLQMNSLRAEDTAVYYCAKSMGSGVSWSGYVATSIDVWGQGTLVTVSSASTKGPSVFPLAPSSKSTSGGTAALGCLVKDYFPEPVTVSWNSGALTSGVHTFPAVLQSSGLYSLSSVVTVPSSSLGTQTYICNVNHKPSNTKVDKKVEPKSCDKTHTCPPCPAPEAAGGPSVFLFPPKPKDTLMISRTPEVTCVVVDVSHEDPEVKFNWYVDGVEVHNAKTKPREEQYNSTYRVVSVLTVLHQDWLNGKEYKCKVSNKALPAPIEKTISKAKGQPREPQVYTLPPSREEMTKNQVSLWCLVKGFYPSDIAVEWESNGQPENNYKTTPPVLDSDGSFFLYSKLTVDKSRWQQGNVFSCSVMHEALHNHYTQKSLSLSPGK light: SYELTQPPSVSVSPGQTARITCSAGSGLYGWYQQKPGQAPVLVIYGTNKRPSGIPERFSGSSSGTTVTLTISGVQAEDEADYYCGSADSSTNAGIFGGGTKLTVLGQPKAAPSVTLFPPSSEELQANKATLVCLISDFYPGAVTVAWKADSSPVKAGVETTTPSKQSNNKYAASSYLSLTPEQWKSHRSYSCQVTHEGSTVEKTVAPTECS scFv: EVQLVESGGGLVQPGGSLRLSCAASGFTFSTYAMNWVRQAPGKGLEWVGRIRSKYNNYATYYADSVKGRFTISRDDSKNTLYLQMNSLRAEDTAVYYCVRHGNFGDSYVSWFAYWGQGTLVTVSSGKPGSGKPGSGKPGSGKPGSQAVVTQEPSLTVSPGGTVTLTCGSSTGAVTTSNYANWVQQKPGKSPRGLIGGTNKRAPGVPARFSGSLLGGKAALTISGAQPEDEADYYCALWYSNHWVFGGGTKLTVLASPKSSDKTHTCPPCPAPEAAGGPSVFLFPPKPKDTLMISRTPEVTCVVVDVSHEDPEVKFNWYVDGVEVHNAKTKPREEQYNSTYRVVSVLTVLHQDWLNGKEYKCKVSNKALPAPIEKTISKAKGQPREPQVYTLPPSREEMTKNQVSLSCAVKGFYPSDIAVEWESNGQPENNYKTTPPVLDSDGSFFLVSKLTVDKSRWQQGNVFSCSVMHEALHNHYTQKSLSLSPGK", "values": [{"measurement": "binding result", "setting": "human CLDN6 [4]", "result": "binds"}]}
